Experimental findings from patent US20070178464A1 are described below.

The assay addresses Probe II: N-terminal domains of Rluc and DnaE with nuclear localization signal (expressed from pcRDn-NLS) (Renilla; blue-green algae, PCC6803 strain) (UniProt P27652). Put plainly: cell-based or functional assay.

Chain of Probe II: N-terminal domains of Rluc and DnaE with nuclear localization signal (expressed from pcRDn-NLS) (Renilla; blue-green algae, PCC6803 strain) (P27652 whole entry, the tested form may be a part): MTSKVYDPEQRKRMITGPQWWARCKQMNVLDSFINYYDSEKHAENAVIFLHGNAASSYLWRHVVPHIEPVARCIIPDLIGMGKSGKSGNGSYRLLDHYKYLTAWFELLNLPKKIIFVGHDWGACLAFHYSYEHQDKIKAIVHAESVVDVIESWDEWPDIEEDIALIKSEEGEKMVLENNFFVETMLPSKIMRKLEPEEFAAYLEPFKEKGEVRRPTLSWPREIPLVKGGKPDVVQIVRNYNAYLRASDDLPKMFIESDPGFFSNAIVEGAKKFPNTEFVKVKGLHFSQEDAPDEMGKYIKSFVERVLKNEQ

The substance “Probe I: AR connected to the C-terminal domains of RLuc and DnaE (expressed from pcDRc-AR) (from UniProt P27652 230-311; P10275 1-918)” came in with a luminescence intensity (cooled CCD image of mice implanted with transfected COS-7 cells) of 20 times.
